# Assay results taken from publication PMC8835667, “The KRAB Domain of ZNF10 Guides the Identification of Specific Amino Acids That Transform the Ancestral KRAB-A-Related Domain Present in Human PRDM9 into a Canonical Modern KRAB-A Domain” (International Journal of Molecular Sciences, 2022).
# Target: tripartite motif containing 28 (TRIM28) (human (endogenous in HeLa), UniProt Q13263 1-835)
# Assay: cell-based or functional assay
# Sequence of tripartite motif containing 28 (TRIM28) (Q13263 whole entry): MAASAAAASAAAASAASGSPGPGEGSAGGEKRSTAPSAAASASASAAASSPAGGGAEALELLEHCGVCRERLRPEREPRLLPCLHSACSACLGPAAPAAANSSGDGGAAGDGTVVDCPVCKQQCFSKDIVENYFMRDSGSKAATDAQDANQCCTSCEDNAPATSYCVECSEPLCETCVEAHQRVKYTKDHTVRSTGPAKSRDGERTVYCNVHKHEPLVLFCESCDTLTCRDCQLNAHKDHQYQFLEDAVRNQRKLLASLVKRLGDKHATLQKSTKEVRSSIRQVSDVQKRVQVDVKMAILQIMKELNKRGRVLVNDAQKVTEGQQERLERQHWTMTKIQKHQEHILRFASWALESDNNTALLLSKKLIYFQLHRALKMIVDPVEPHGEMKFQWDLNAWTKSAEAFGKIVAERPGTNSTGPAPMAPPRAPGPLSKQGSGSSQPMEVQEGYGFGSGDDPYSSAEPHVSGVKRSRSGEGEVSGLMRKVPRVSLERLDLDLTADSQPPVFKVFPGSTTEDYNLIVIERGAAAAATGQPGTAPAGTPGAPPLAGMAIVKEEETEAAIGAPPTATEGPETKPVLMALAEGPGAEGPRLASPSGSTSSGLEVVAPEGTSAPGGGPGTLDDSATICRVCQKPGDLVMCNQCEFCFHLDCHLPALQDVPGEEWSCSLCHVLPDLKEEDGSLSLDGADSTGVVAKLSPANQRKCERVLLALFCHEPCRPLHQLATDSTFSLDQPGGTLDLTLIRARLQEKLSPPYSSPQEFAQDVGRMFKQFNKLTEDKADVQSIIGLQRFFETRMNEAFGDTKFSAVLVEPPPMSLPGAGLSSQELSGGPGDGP
row,"transcriptional repression factor over Gal4-DBD alone, dual luciferase reporter assay in HeLa cells (KRAB domain as Gal4-DBD fusion) [fold]",Binder
1,1.3,"GST-PRDM9-A/24-97 (domain or fragment, human, UniProt Q9NQV7 24-97, looked up) VKDAFKDISIYFTKEEWAEMGDWEKTRYRNVKRNYNALITIGLRATRPAFMCHRRQAIKLQVDDTEDSDEEWTP"
2,~19,GST-ZNF10-AB fusion protein (domain or fragment) not shown
